The values that follow come from US20230340160A1 (published 2023).

Assay [1] addresses T1, murine FcγRIV (murine).
T1 construct: Captured on anti-Penta His antibody in SPR; also called muFcγRIV-aviHis-biotin
The assay can be described thus: SPR (Biacore T100, 25 °C); receptor captured on anti-Penta His, construct as analyte; kinetic. As for the experimental part:
(§1) For analyzing interaction of different Fc-variants with human FcγRIIIa-V158 and murine FcγRIV direct coupling of around 6,500 resonance units (RU) of the anti-Penta His antibody (Qiagen) is performed on a CM5 chip at pH 5.0 using the standard amine coupling kit (Biacore, Freiburg/Germany). HuFcγRIIIa-V158-K6H6 and muFcγRIV-aviHis-biotin are captured for 60 s at 4 and 10 nM respectively.
(§2) Constructs with different Fc-mutations are passed through the flow cells for 120 s at a concentration of 1000 nM with a flow rate of 30 µl/min. The dissociation is monitored for 220 s. Bulk refractive index differences are corrected for by subtracting the response obtained in a reference flow cell. Here, the Fc-variants are flown over a surface with immobilized anti-Penta His antibody but on which HBS-EP has been injected rather than HuFcγRIIIa-V158-K6H6 or muFcγRIV-aviHis-biotin. Affinity for human FcγRIIIa-V158 and murine FcγRIV was determined for wild-type Fc using a concentration range from 500 - 4000 nM.
(§3) The steady state response was used to derive the dissociation constant KD by non-linear curve fitting of the Langmuir binding isotherm. Kinetic constants were derived using the Biacore T100 Evaluation Software (vAA, Biacore AB, Uppsala/Sweden), to fit rate equations for 1:1 Langmuir binding by numerical integration.

In assay [2] the target is T2, human FcγRIIIa-V158 (human, UniProt P08637 17-208).
T2 construct: His-tagged recombinant receptor captured on anti-Penta His antibody in SPR; also called huFcγRIIIa-V158-K6H6; HuFcγRIIIa-V158-K6H6; not shown: K6H6 tag, named only by this short form
Kind of assay: SPR (Biacore T100, 25 °C); receptor captured on anti-Penta His, construct as analyte 500 - 4000 nM; steady state. As for the experimental part: as §1, §2, §3
For orientation: SPR reads the build-up and loss of mass on a sensor chip optically.

In assay [3] the target is T1, murine FcγRIV. The assay is described as above. As for the experimental part:
as §1, §2, §3

The target of assay [4] is T2, human FcγRIIIa-V158. Kind of assay: SPR (Biacore T100, 25 °C); receptor captured on anti-Penta His, construct as analyte; kinetic; second value in parentheses, not explained. How it is done: as §1, §2, §3
In assay [5] the target is T2, human FcγRIIIa-V158. Kind of assay: SPR (Biacore T100, 25 °C); His-tagged receptor captured on anti-Penta His, construct as analyte; kinetic 1:1 fit, one concentration (1000 nM). How it is done: as §1, §2, §3
The target in assay [6] is T3, human CD3 expressed on Jurkat cells (human, UniProt P07766 23-207).
T3 construct: CD3 complex on Jurkat cells (ATCC TIB-152); also called huCD3
The assay can be described thus: flow cytometry on Jurkat cells, 50 nM. How it is done: (§4) Binding of the different bispecific constructs to CD3 on Jurkat cells (ATCC #TIB-152), and the respective tumor antigen on target cells, was determined by FACS. Briefly, cells were harvested, counted and checked for viability. 0.15 - 0.2 million cells per well (in PBS containing 0.1% BSA; 90 µl) were plated in a round-bottom 96-well plate and incubated with the indicated concentration of the bispecific constructs and corresponding IgG controls (10 µl) for 30 min at 4° C. For a better comparison, all constructs and IgG controls were normalized to same molarity. After the incubation, cells were centrifuged (5 min, 350 × g), washed with 150 µl PBS containing 0.1% BSA, resuspended and incubated for further 30 min at 4° C. with 12 µl/well of a FITC-or PE-conjugated secondary antibody. Bound constructs were detected using a FACSCantoII (Software FACS Diva). The “(scFv)₂” molecule was detected using a FITC-conjugated anti-His antibody (Lucerna, #RHIS-45F-Z). For all other molecules, a FITC- or PE-conjugated AffiniPure F(ab′)2 Fragment goat anti-human IgG Fcγ Fragment Specific (Jackson Immuno Research Lab # 109-096-098 / working solution 1:20, or #109-116-170 / working solution 1:80, respectively) was used. Cells were washed by addition of 120 µl/well PBS containing 0.1% BSA and centrifugation at 350 × g for 5 min. A second washing step was performed with 150 µl/well PBS containing 0.1% BSA. Unless otherwise indicated, cells were fixed with 100 µl/well fixation buffer (BD #554655) for 15 min at 4° C. in the dark, centrifuged for 6 min at 400 × g and kept in 200 µl/well PBS containing 0.1% BSA until the samples were measured with FACS CantoII. EC50 values were calculated using the GraphPad Prism software.
(§5) In a first experiment, different bispecific constructs targeting human MCSP and human CD3 were analyzed by flow cytometry for binding to human CD3 expressed on Jurkat, human T cell leukaemia cells, or to human MCSP on Colo-38 human melanoma cells.
Background: A flow cytometer gives signals particle by particle.

Assay [7] addresses T4, human MCSP expressed on tumor cells (human, UniProt Q6UVK1 30-2322).
T4 construct: whole, on cells; On Colo-38, WM266-4, MV-3 or MDA-MB-435 cells, as named in each row; also called huMCSP; Melanoma-associated Chondroitin Sulfate Proteoglycan
Kind of assay: flow cytometry on Colo-38 cells, 50 nM. How it is done:
as §4, §5

Assay [8] has as its target T2, human FcγRIIIa-V158. Kind of assay: SPR (Biacore T100, 25 °C); receptor captured on anti-Penta His, construct as analyte; kinetic 1:1 fit, one concentration (1000 nM). As for the experimental part:
as §1, §2, §3

T2 sequence (P08637 17-208 F176V): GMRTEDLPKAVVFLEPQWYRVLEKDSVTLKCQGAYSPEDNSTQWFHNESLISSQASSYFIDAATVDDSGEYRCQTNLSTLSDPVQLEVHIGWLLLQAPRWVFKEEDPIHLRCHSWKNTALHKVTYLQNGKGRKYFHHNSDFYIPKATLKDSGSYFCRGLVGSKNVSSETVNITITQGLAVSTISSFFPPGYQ
T1 sequence (A0A0B4J1G0 21-203): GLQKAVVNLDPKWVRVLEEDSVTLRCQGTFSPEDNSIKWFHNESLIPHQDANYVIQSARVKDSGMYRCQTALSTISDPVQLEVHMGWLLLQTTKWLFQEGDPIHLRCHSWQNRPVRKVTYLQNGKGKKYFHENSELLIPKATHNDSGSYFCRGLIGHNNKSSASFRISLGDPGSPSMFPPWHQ
T3 sequence (P07766 23-207 limits assumed): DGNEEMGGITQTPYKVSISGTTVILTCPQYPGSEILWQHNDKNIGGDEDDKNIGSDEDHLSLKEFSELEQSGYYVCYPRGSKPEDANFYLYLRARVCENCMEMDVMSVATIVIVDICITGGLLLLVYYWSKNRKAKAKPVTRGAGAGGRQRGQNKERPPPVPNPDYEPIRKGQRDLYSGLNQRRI
T4 sequence (Q6UVK1 30-2322): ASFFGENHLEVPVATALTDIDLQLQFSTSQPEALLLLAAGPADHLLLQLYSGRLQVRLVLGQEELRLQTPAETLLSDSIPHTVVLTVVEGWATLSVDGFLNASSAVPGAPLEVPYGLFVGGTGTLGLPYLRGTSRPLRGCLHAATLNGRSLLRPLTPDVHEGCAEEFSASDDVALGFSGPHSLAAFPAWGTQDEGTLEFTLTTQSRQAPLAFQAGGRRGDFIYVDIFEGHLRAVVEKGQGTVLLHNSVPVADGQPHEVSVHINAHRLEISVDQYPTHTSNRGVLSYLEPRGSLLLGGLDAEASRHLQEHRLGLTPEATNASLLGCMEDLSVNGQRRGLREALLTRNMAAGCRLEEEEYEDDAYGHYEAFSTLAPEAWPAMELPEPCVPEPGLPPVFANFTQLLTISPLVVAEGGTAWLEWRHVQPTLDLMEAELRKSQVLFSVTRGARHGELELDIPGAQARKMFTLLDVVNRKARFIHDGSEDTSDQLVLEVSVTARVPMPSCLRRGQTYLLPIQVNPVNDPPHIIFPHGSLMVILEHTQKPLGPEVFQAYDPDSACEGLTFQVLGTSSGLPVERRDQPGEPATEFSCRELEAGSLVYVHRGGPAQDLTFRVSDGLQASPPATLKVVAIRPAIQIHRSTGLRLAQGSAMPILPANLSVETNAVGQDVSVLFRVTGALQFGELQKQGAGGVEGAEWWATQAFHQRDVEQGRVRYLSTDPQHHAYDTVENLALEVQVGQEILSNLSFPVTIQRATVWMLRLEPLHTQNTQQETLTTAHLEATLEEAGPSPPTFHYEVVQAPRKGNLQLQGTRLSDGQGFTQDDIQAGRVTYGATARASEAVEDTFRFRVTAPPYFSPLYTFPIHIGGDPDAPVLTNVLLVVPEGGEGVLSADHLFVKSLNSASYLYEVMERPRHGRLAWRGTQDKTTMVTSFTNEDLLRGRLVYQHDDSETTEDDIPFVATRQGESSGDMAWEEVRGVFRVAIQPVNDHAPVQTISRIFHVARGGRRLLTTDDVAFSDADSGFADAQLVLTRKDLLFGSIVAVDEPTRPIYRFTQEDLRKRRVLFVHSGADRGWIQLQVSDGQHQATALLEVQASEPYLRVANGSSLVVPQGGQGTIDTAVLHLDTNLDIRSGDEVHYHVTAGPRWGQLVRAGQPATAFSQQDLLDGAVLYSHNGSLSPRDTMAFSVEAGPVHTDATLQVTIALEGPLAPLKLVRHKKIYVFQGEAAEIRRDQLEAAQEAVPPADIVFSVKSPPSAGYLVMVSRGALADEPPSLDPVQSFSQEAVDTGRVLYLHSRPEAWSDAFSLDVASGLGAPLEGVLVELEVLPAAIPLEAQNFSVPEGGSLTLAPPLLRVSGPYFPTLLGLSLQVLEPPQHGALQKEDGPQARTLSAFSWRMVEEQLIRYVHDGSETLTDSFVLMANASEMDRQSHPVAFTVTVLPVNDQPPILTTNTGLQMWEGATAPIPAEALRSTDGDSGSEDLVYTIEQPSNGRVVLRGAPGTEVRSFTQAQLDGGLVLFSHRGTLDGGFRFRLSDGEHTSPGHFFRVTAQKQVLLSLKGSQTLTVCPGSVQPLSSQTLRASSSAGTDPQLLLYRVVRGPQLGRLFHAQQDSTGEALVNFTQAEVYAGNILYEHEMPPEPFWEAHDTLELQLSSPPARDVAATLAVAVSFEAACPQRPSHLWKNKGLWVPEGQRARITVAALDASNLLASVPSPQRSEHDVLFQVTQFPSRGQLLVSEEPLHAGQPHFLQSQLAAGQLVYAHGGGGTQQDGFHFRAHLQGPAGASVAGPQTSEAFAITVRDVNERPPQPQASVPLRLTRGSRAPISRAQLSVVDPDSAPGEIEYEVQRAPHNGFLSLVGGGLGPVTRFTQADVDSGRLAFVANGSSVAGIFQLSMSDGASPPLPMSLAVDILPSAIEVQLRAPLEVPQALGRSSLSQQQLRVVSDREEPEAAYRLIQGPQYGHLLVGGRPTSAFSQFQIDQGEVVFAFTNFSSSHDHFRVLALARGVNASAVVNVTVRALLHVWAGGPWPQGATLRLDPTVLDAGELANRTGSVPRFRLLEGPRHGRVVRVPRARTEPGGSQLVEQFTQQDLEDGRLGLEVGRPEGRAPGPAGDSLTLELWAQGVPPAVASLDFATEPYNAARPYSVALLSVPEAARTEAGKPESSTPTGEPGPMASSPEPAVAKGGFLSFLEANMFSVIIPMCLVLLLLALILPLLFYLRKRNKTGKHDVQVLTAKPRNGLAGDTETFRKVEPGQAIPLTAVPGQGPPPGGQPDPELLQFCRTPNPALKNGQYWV

B1: “2+1 IgG scFab, wt” (anti-MCSP/anti-huCD3) (bispecific antibody)
heavy 1: not shown
heavy 2: not shown
light: DIVLTQSPSSLSASLGDRVTISCSASQGIRNYLNWYQQRPDGTVKLLIYYTSSLHSGVPSRFSGSGSGTDYSLTISNLEPEDIATYYCQQYSKLPWTFGGGTKLEIKRTVAAPSVFIFPPSDEQLKSGTASVVCLLNNFYPREAKVQWKVDNALQSGNSQESVTEQDSKDSTYSLSSTLTLSKADYEKHKVYACEVTHQGLSSPVTKSFNRGEC
notes: LC007 (MCSP, two Fabs) x V9 (CD3, one scFab); wild-type Fc domain with knob/hole; also called Fc-wt
Regarding B1, the Kd with murine FcγRIV [1] came out at 576 nM; in the assay with human FcγRIIIa-V158 [2], 3470 nM; with murine FcγRIV [3], 1500 nM; in the assay with human FcγRIIIa-V158 [4], 1200 nM; with human FcγRIIIa-V158 [5], 600 nM.

B2: “2+1 IgG scFab, LALA” (anti-MCSP/anti-huCD3) (bispecific antibody)
heavy 1: not shown
heavy 2: EVQLQESGPGLVKPSQSLSLTCSVTGYSITSGYYWNWIRQFPGNKLEWMGYITYDGSNNYNPSLKNRISITRDTSKNQFFLKLNSVTTEDTATYYCADFDYWGQGTTLTVSSASTKGPSVFPLAPSSKSTSGGTAALGCLVKDYFPEPVTVSWNSGALTSGVHTFPAVLQSSGLYSLSSVVTVPSSSLGTQTYICNVNHKPSNTKVDKKVEPKSCDKTHTCPPCPAPEAAGGPSVFLFPPKPKDTLMISRTPEVTCVVVDVSHEDPEVKFNWYVDGVEVHNAKTKPREEQYNSTYRVVSVLTVLHQDWLNGKEYKCKVSNKALPAPIEKTISKAKGQPREPQVCTLPPSRDELTKNQVSLSCAVKGFYPSDIAVEWESNGQPENNYKTTPPVLDSDGSFFLVSKLTVDKSRWQQGNVFSCSVMHEALHNHYTQKSLSLSPGK
light: DIVLTQSPSSLSASLGDRVTISCSASQGIRNYLNWYQQRPDGTVKLLIYYTSSLHSGVPSRFSGSGSGTDYSLTISNLEPEDIATYYCQQYSKLPWTFGGGTKLEIKRTVAAPSVFIFPPSDEQLKSGTASVVCLLNNFYPREAKVQWKVDNALQSGNSQESVTEQDSKDSTYSLSSTLTLSKADYEKHKVYACEVTHQGLSSPVTKSFNRGEC
notes: also called Fc-LALA
On to B2, for which the binding result in assay [6] and in assay [7] was “binds” each time. The same molecule came in with a Kd with human FcγRIIIa-V158 [8] of 2130 nM.

By Kd is commonly meant the constant that tells how readily two partners part at equilibrium.
